This note sets out measurements from US20140286972A1.

Assay [1] addresses IgE antibodies of a mixture of sera of patients allergic to P. judaica (human). The experiment in a line: ELISA inhibition, extract on solid phase, pooled sera.
The target is the same in assay [2]. The experiment in a line: ELISA inhibition, extract on solid phase, pooled sera; reference Q1. A general note: ELISA stands for enzyme-linked immunosorbent assay.
Assay [3] shares this target. Kind of assay: ELISA inhibition, extract on solid phase, pooled sera preincubated with inhibitor.
For assay [4] the target is unchanged. Kind of assay: ELISA inhibition, extract on solid phase, pooled sera; reference nPar j 1-Par j 2.

B1: chimeric protein Q2 (protein)
chain: MRGSHHHHHHGILQETCGTMVRALMPCLPFVQGKEKEPSKGLQIQTAMKTYSDIDGKLVSEVPKHCGIVDSKLPPIDVNMDCKTLGVVPRQPQLPVSLRHGPVTGPSDPAHKARLERPQIRVPPPAPEKAEFEEACGKVVQDIMPCLHFVKGEEKEPSKEDIIVRATKGISGIKNELVAEVPKKCDIKTTLPPITADFDCSKIQSTIFRGYY
Take B1: the reduction of allergenicity (IgE-binding) against nPar j 1-Par j 2 in assay [1] stood at 100%. In assay [2], the fold less allergenic than the chimeric protein Q1 is 20 times. Besides, the maximum degree of inhibition of IgE binding to P. judaica extract in assay [3] was 60%. Moreover, the fold higher protein concentration than nPar j 1-Par j 2 for the same degree of inhibition in assay [4] was 10000 times.

B2: chimeric protein Q3 (protein)
chain: MRGSHHHHHHGILPETCGTMVRALMPCLPFVQGKEKEPSKGLQIQTAMKTYSDIDGKLVSEVRSSKLPPIDVNMDCKTLGVVPRQPQLPVSLRHGPVTGPSDPAHKARLERPQIRVPPPAPEKAEFEEACGKVVQDIMPCLHFVKGEEKEPSKEDIIVRATKGISGIKNELVAEVPGTLPPITADFDCSKIQSTIFRGYY
Consider B2, for which the reduction of allergenicity (IgE-binding) against nPar j 1-Par j 2 in assay [1] worked out at 100%. In addition, the maximum degree of inhibition of IgE binding to P. judaica extract in assay [3] was 60%. In assay [4], the fold higher protein concentration than nPar j 1-Par j 2 for the same degree of inhibition was 10000 times.

B3: chimeric protein Q1 (protein)
chain: MRGSHHHHHHGILQETCGTMVRALMPCLPFVQGKEKEPSKGCCSGAKRLDGETKTGPQRVHACECIQTAMKTYSDIDGKLVSEVPKHCGIVDSKLPPIDVNMDCKTLGVVPRQPQLPVSLRHGPVTGPSDPAHKARLERPQIRVPPPAPEKAEFEEACGKVVQDIMPCLHFVKGEEKEPSKECCSGTKKLSEEVKTTEQKREACKCIVRATKGISGIKNELVAEVPKKCDIKTTLPPITADFDCSKIQSTIFRGYY
As for B3, in assay [3], the degree of inhibition of IgE binding to P. judaica extract came out at 50%. For the same molecule, the fold more protein needed than nPar j 1-Par j 2 in assay [4] worked out at 500 times.
